Tests used:
Assay in all cases: flow cytometry, transfected 293T cells, 2 mM CaCl2;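 further: binding of Alexa647-labelled anti-CDH19 antibodies to cells expressing human/chicken CDH19 chimeras, read as cell-bound fluorescence, with mock-transfected cells as controls, n.d. meaning not determined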
[1] = biological target: huCDH19(44-772) with Flag tag (construct A, Hu EC1-5) (human, UniProt Q9H159 44-772)
Procedure: (§1) The experiment included assaying a subset of anti-CDH19 antibodies against chicken Cadherin19 to determine suitability for binning on these human/chicken chimeras.
(§2) The following binding assay was completed in presence of 2 mM CaCl₂). […] Cells were then washed one time and the amount of cell associated Alexa647-labelled Ab was quantitated by flow cytometry. The experiments included mock transfected controls.

[2] = biological target: T1, ckCDH19(1-43)::FLAG::ckCDH19(44-776) (construct J, Ck EC1-5) (chicken)
T1 construct: the entry holds leader (1-43), FLAG and ckCDH19(44-776); leader left out; also called chicken Cadherin19
T1 chain: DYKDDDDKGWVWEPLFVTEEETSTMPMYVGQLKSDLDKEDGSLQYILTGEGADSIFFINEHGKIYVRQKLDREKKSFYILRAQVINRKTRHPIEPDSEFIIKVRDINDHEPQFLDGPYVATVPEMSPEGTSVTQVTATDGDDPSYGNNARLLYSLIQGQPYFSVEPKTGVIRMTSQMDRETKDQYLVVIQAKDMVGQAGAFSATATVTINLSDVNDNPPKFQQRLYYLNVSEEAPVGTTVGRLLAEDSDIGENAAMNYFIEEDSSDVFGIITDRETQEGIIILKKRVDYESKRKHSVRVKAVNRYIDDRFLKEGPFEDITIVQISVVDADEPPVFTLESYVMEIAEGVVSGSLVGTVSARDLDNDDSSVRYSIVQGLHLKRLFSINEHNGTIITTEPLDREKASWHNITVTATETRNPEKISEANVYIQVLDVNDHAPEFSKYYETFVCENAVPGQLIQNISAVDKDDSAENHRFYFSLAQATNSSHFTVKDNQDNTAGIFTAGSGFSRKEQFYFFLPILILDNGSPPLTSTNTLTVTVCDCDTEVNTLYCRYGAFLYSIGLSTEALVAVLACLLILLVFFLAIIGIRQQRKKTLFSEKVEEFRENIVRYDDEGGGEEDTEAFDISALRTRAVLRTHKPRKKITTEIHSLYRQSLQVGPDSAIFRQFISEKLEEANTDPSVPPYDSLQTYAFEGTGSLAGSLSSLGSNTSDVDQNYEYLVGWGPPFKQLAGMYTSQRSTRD
Procedure: as §1, §2

[3] = biological target: T2, huCDH19(1-43)::FLAG::hu(44-141)::ckCDH19(142-776) (construct K, Hu EC1) (human/chicken chimera)
T2 construct: leader (1-43 of the entry) left out; also called huCDH19(44-141)::ckCDH19(142-776)
Procedure: as §1, §2

[4] = biological target: T3, ckCDH19(1-43)::FLAG::ckCDH19(44-141)::huCDH19(142-249)::ckCDH19(250-776) (construct L, Hu EC2) (human/chicken chimera)
T3 construct: leader (1-43 of the entry) left out
T3 chain: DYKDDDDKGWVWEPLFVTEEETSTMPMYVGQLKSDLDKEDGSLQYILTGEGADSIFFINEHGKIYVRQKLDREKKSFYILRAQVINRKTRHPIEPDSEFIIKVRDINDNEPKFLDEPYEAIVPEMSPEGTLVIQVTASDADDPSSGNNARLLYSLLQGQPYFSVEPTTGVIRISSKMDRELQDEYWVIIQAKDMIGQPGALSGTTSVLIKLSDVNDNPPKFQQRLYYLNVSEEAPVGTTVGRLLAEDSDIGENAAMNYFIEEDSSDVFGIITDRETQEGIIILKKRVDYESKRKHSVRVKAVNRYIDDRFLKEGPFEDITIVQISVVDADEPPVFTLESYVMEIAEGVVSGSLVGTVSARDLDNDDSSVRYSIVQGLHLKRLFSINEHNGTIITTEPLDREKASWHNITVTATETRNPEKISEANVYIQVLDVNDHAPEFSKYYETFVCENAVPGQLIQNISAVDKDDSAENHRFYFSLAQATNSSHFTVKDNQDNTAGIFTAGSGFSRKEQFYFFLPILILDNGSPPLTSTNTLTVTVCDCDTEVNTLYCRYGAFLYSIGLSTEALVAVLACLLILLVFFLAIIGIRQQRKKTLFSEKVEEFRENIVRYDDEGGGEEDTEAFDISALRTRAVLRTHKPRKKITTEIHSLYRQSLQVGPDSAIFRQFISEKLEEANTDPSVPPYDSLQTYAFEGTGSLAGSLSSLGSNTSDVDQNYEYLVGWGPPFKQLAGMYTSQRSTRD
Procedure: as §1, §2

[5] = biological target: T4, ckCDH19(1-43)::FLAG::ckCDH19(44-249)::huCDH19(250-364)::ckCDH19(365-776) (construct M, Hu EC3) (human/chicken chimera)
T4 construct: leader (1-43 of the entry) left out
Procedure: as §1, §2

[6] = biological target: T5, ckCDH19(1-43)::FLAG::ckCDH19(44-468)::huCDH19(464-772) (construct O, Hu EC5) (human/chicken chimera)
T5 construct: leader (1-43 of the entry) left out
T5 chain: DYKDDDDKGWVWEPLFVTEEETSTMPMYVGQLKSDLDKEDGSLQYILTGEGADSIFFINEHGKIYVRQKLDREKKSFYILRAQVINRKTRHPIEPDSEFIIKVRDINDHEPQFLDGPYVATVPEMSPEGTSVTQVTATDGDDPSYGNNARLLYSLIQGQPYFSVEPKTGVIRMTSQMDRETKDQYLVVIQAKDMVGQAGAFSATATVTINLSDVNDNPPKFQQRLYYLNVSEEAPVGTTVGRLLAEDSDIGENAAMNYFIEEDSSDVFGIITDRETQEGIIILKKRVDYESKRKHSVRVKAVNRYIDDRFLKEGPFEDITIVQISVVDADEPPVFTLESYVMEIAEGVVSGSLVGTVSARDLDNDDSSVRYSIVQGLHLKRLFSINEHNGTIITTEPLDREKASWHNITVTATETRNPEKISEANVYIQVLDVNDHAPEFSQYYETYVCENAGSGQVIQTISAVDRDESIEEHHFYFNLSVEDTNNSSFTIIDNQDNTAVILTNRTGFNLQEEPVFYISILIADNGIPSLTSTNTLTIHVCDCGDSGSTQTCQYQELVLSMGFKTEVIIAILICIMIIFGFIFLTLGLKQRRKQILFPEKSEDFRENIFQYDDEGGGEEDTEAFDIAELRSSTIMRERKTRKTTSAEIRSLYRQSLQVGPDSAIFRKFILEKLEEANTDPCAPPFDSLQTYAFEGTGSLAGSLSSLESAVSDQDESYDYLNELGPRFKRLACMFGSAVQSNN
Procedure: as §1, §2

Row | Binder | binding result [1] | binding result [2] | binding result [3] | binding result [4] | binding result [5] | binding result [6]
1 | hu anti-<huCDH19> 26D1.1 (Ab ID 13882) (antibody, human IgG1, lambda, V domains shown, huIgG1z / huLLC-C2; Bin 2) VH: QVQLVQSGAEVKKPGASVKVSCKASRYTFTSYYMSWVRQAPGQGLEWMGIIHPSGGDTTYAQKFQGRVTMTGDTSTSTVYMELSSLRSEDTAVYYCARGGIKLWLHFDYWGQGTLVTVSS VL: not shown | binds | no binding (tested: 5 ug/ml) | binds | no binding (tested: 5 ug/ml) | no binding (tested: 5 ug/ml) | no binding (tested: 5 ug/ml)
2 | anti-CDH19 antibody 2G6 (Ab ID 13588) (antibody, human IgG1, lambda, V domains shown, Bin 4) VH: QVQLVESGGGVVQPGRSLRLSCAASGFTFSSYGMHWVRQAPGKGLEWVAFIWYDGSNKYYADSVKDRFTISRDNSKNTLYLQMKSLRAEDTAVYYCARRAGIIGTIGYYYGMDVWGQGTTVTVSS VL: SYELTQPPSVSVSPGQTASITCSGDRLGEKYTCWYQQRPGQSPLLVIYQDTKRPSGIPERFSGSNSGNTATLTISGTQAMDEADYYCQAWDSSTVVFGGGTKLTVLG | binds | no binding (tested: 5 ug/ml) | no binding (tested: 5 ug/ml) | no binding (tested: 5 ug/ml) | binds | no binding (tested: 5 ug/ml)
3 | hu anti-<huCDH19> 4A9 (Ab ID 13589) (antibody, human IgG1, lambda, V domains shown, huIgG1z / huLLC-C1; Bin 1) VH: QVQLQESGPGLVKPSETLSLTCTVSGGSISGYYWSWIRQPPGKGLEWFAYFSYSGSTNYNPSLKSRVTLSVDTSKNQFSLKLSSVTAADTAVYYCARNWAFHFDFWGQGTLVTVSS VL: QSVLTQPPSVSGAPGQRVTISCTGSSSNIGTGYAVHWYQQFPGTAPKLLIYGNNNRPSGVPDRFSGSKSGTSASLAITGLQAEDEADYYCQSYDSRLSGWVFGGGTKLTVLG | binds | no binding (tested: 5 ug/ml) | binds | no binding (tested: 5 ug/ml) | no binding (tested: 5 ug/ml) | no binding (tested: 5 ug/ml)
4 | hu anti-<huCDH19> 25F8.1 (1-469)(F90Y) VH::huIgG1z + 25F8.1 (1-235)(K45Q,S102A,D111E) VL::huLLC-C2 (Ab ID 14096) (antibody, V domains shown, Engineered variant of 25F8; the entries already carry the changes; Bin 2) VH: QVQLVQSGAEVKKPGASVKVSCKASGYTFTSYYIHWVRQAPGQGLEWMGIINPSGGSTRYAQKFQGRVTMTRDTSTSTVYMELSSLRSEDTAVYYCARGGIQLWLHFDYWGQGTLVTVSS VL: not shown | binds | no binding (tested: 5 ug/ml) | binds | no binding (tested: 5 ug/ml) | no binding (tested: 5 ug/ml) | no binding (tested: 5 ug/ml)
5 | hu anti-<huCDH19> 4B10 (Ab ID 13590) (antibody, V domains shown, huIgG1z / huKLC; Bin 4) VH: QVQLVESGGGVVQPGRSLRLSCAASGFTFSSYDMHWVRQAPGKGLEWVAVISYDGTNEYYADSVKGRFTISRDTSKNTLYLQMNSLRAEDTAVYYCARERYFDWSFDYWGQGTLVSVSS VL: EIVLTQSPGTLSLSPGERATLSCRASQSVSNTYLAWYHQRPGQAPRLLIYGASSRATGIPDRFSGSGSGTDFALTISSLEPEDFAVYYCQQYSNSWTFGQGTKVEIKR | binds | no binding (tested: 5 ug/ml) | no binding (tested: 5 ug/ml) | no binding (tested: 5 ug/ml) | binds | no binding (tested: 5 ug/ml)
6 | hu anti-<huCDH19> 23A10.3 (1-474)(L92Q) VH::huIgG1z + 23A10.3 (1-231)(C42S) VL::huLLC-C2 (Ab ID 14077) (antibody, V domains shown, Engineered variant of 23A10; the entries already carry the changes; Bin 4) VH: QVQLVESGGGVVQPGRSLRLSCAASGFTFSRYGIHWVRQAPGKGLEWVAVIWYDGSNKYYADSVKGRFTISRDNSKNTLYLQMNSLRAEDSAVYYCARRAGIPGTTGYYYGMDVWGQGTTVTVSS VL: SYELTQPPSVSVSPGQTASITCSGDRLGEKYVSWYQQKPGQSPILVIYQDNKWPSGIPERFSGSNSGNTATLTISGTQAMDEADYYCQAWDSSTVVFGGGTKLTVLG | binds | no binding (tested: 5 ug/ml) | no binding (tested: 5 ug/ml) | no binding (tested: 5 ug/ml) | binds | no binding (tested: 5 ug/ml)
7 | anti-CDH19 antibody 4A2 (Ab ID 13592) (antibody, human IgG1, kappa, V domains shown, Bin 4) VH: QVQLQESGPGLVKPSQTLSLTCTVSGGSISSSGYYWSWIRQHPGKGLEWIGYIYYTGSAYYNPSLKSRVTISVDTSKNQFSLKLSSVTAADTAVYYCARDGSSGWYFQYWGQGTLVTVSS VL: EIVLTQSPGTLSLSPGERATLSCRASRNISSSYLAWYQQKPGQAPRLLIYGPSSRATGIPDRFSGSGSGTDFTLTISRLEPEDFTVYYCQQYGSSFTFGPGTKVDIKR |  | no binding (tested: 5 ug/ml) | no binding (tested: 5 ug/ml) | no binding (tested: 5 ug/ml) |  | no binding (tested: 5 ug/ml)
